The supplement of paper PMC10126150
± gives the standard deviation of the averaged measurements.

System: ATP
Experiment: switch fluorescence ratio, 500 uM ATP over buffer (Cy3 cluster intensity, sum of 5 cycles each) (fold (ratio)); higher = stronger signal-on switching upon ATP binding; sequences stand for … in TCGTCGGCAGCGTCAGATGTGTATAAGAGACAGTTTTTTTTTTTTTTTTTTTTTTTTT…TC
Settings: aptamer strand: ATP DNA aptamer (quencher-CACCTGGGGGAGTATTGCGGAGGAAGG + anchor), 100 nM annealed; ATP concentration: 500 uM
Summary of the method: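 Switching-strand clusters labelled with Cy3 on a modified Illumina MiSeq flow-cell were annealed to 100 nM quencher-labelled ATP aptamer, imaged in selection buffer, and re-imaged after 15 min with 500 uM ATP at 22 °C. This was done over five cycles with NaOH stripping and re-annealing in between. The fluorescence ratio is summed target-cycle over summed buffer-cycle Cy3 intensity per cluster, averaged per switch-domain sequence, excluding clusters outside 100-1000 RFU.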
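Note: ATP exposure 15 min at 22 °C before imaging.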

Sequence	switch fluorescence ratio
GATTTGGCTC	1 ± 0.031
GATTTGGTTG	0.963 ± 0.026
GATTTGTGTG	0.978 ± 0.034
GATTTTAATG	0.981 ± 0.013
GATTTTAGTT	0.9848 ± 0.0086
GATTTTATGT	1.05 ± 0.086
GATTTTCGAA	1 ± 0.041
GATTTTCGAG	0.994 ± 0.031
GATTTTGGAC	1.031 ± 0.0078
GATTTTGGTG	0.971 ± 0.023
GATTTTGTTA	1.01 ± 0.025
GATTTTGTTG	0.979 ± 0.014
GATTTTTAAA	1.02 ± 0.035
GATTTTTCAG	1.019 ± 0.006
GATTTTTTGC	0.98176 ± 0.00098
GATTTTTTTG	0.985 ± 0.037
GATTTTTTTT	0.989 ± 0.029
GCAAAATTTC	1.02 ± 0.085
GCAAAGCGTC	0.9824 ± 0.0083
GCAAATGGTT	1.01 ± 0.053
GCAAATTCCG	1.026 ± 0.0095
GCAACGGGTC	1.03 ± 0.025
GCAACGGGTT	1.16 ± 0.21
GCAACTATT	2.42 ± 2
GCAAGAACGC	1.096 ± 0.0023

Sequence	switch fluorescence ratio
GCAAGGGTAT	1.01 ± 0.025
GCAAGGGTGG	1 ± 0.038
GCAAGGTAGC	1.07 ± 0.011
GCAAGTAGGG	1.02 ± 0.019
GCAAGTGTTC	1.01 ± 0.018
GCAATATGCA	1.03 ± 0.05
GCAATATTTC	2.31 ± 0.35
GCAATCGGGA	1.2 ± 0.087
GCAATTTGGT	1.03 ± 0.02
GCAATTTTTG	1.002 ± 0.0066
GCACACAAAA	1.05 ± 0.012
GCACATTGCT	1.02 ± 0.013
GCACCAATT	1.06 ± 0.072
GCACCATAGC	1.06 ± 0.011
GCACCTCAAT	1.25 ± 0.037
GCACGATGGT	0.972 ± 0.01
GCACGGGCAC	1.18 ± 0.18
GCACTAGGGA	0.9908 ± 0.0062
GCACTTTTCG	1.01 ± 0.025
GCAGAATATT	0.998 ± 0.029
GCAGACGGTG	1.05 ± 0.013
GCAGATGATC	1.027 ± 0.0014
GCAGATGCCT	1 ± 0.023
GCAGATTGGC	1.034 ± 0.01
GCAGATTTGG	0.978 ± 0.026

Sequence	switch fluorescence ratio
GCAGCGGACT	1.29 ± 0.042
GCAGCGGCTG	0.994 ± 0.014
GCAGCGGGGC	1.28 ± 0.038
GCAGCTGGCA	0.984 ± 0.017
GCAGGAAAAC	1.04 ± 0.018
GCAGGAAGAG	1.0184 ± 0.00041
GCAGGAAGGC	1.089 ± 0.0071
GCAGGACATA	1.06 ± 0.027
GCAGGACGGA	1.03 ± 0.04
GCAGGAGCAT	1.03 ± 0.052
GCAGGCACGG	0.976 ± 0.028
GCAGGGAGAG	0.964 ± 0.022
GCAGGGCGGG	0.99 ± 0.011
GCAGGGGAGG	1 ± 0.036
GCAGGGGGTA	0.999 ± 0.027
GCAGGGGTTC	1.16 ± 0.15
GCAGGTGTTC	1.14 ± 0.02
GCAGTACGGG	1.42 ± 0.26
GCAGTGGGTG	0.998 ± 0.012
GCAGTGTCCA	1.01 ± 0.032
GCAGTGTGCG	0.985 ± 0.025
GCAGTTGAGT	1.01 ± 0.017
GCAGTTTGTT	0.978 ± 0.019
GCATAACAGG	1.04 ± 0.045
GCATAAGATG	1 ± 0.024

Sequence	switch fluorescence ratio
GCATAGCAAT	1.054 ± 0.003
GCATATGGTT	0.988 ± 0.016
GCATATTTGA	0.981 ± 0.015
GCATCATATG	0.998 ± 0.028
GCATCATGTT	0.987 ± 0.044
GCATCCGAAG	1.274 ± 0.0035
GCATCGCCAT	1.02 ± 0.029
GCATCGTCGG	1.04 ± 0.058
GCATCGTGCG	1.01 ± 0.052
GCATCTAAGC	1.06 ± 0.043
GCATCTCGCG	1.01 ± 0.021
GCATGAAAAC	1.03 ± 0.031
GCATGAGTGC	1.07 ± 0.061
GCATGATAAC	1.04 ± 0.02
GCATGATAAT	1.004 ± 0.0013
GCATGATATG	1.01 ± 0.0088
GCATGCAGGA	1.01 ± 0.02
GCATGCATTG	0.97797 ± 0.0001
GCATGCGCGC	0.984 ± 0.012
GCATGCTGGG	1.04 ± 0.0064
GCATGCTGTC	0.983 ± 0.019
GCATGGCTGC	1.03 ± 0.036
GCATGGCTTT	1.01 ± 0.023
GCATGGGGAT	1.02 ± 0.051
GCATGGGTAG	0.982 ± 0.018

Sequence	switch fluorescence ratio
GCATGTCGGA	1.01 ± 0.039
GCATGTGGGC	0.967 ± 0.01
GCATGTGTGG	0.995 ± 0.065
GCATTAAGAT	1.02 ± 0.025
GCATTAAGTG	1 ± 0.024
GCATTAATGG	1.04 ± 0.051
GCATTAGGAC	1.24 ± 0.018
GCATTAGGTT	1.03 ± 0.019
GCATTATAT	1.03 ± 0.023
GCATTATTAA	1.01 ± 0.032
GCATTCGGAT	1.01 ± 0.014
GCATTGAAGC	0.995 ± 0.011
GCATTGGTTT	0.982 ± 0.011
GCATTGTTTT	0.96 ± 0.038
GCATTTCAGG	0.98822 ± 0.00033
GCATTTGGCT	1.027 ± 0.0064
GCCAAAGGTG	1.72 ± 0.12
GCCAACGGGG	1 ± 0.028
GCCAATTTGC	1.02 ± 0.07
GCCAGATAGG	0.9562 ± 0.0088
GCCAGGGACG	1.02 ± 0.028
GCCAGTATCC	0.997 ± 0.014
GCCAGTTTGC	0.998 ± 0.015
GCCAGTTTGG	0.9916 ± 0.0052
GCCATCAAGA	0.995 ± 0.062

Sequence	switch fluorescence ratio
GCCATCGAAT	1 ± 0.021
GCCATGTTGA	1.02 ± 0.0063
GCCATTAGCA	1.022 ± 0.005
GCCATTGAGG	0.9668 ± 0.0031
GCCCATTTCT	1.03 ± 0.039
GCCCATTTTT	0.978 ± 0.011
GCCCCGGGGG	1.1 ± 0.046
GCCCGATCAC	1.151 ± 0.0086
GCCCGCCACA	1.06 ± 0.041
GCCCGGGGGG	1.03 ± 0.0083
GCCCGGTCGG	0.953 ± 0.017
GCCCGTATGC	1.07 ± 0.011
GCCCTACAAC	0.998 ± 0.012
GCCCTGAGCA	1.01 ± 0.026
GCCCTTGTCA	1.01 ± 0.019
GCCCTTTCGT	1.032 ± 0.0021
GCCCTTTTAC	1.19 ± 0.074
GCCCTTTTTT	1 ± 0.046
GCCGAGCCGG	0.972 ± 0.011
GCCGAGCTCT	0.996 ± 0.024
GCCGATGCTG	0.978 ± 0.042
GCCGATTACG	1.02 ± 0.033
GCCGATTATA	1 ± 0.00097
GCCGCACGGA	1.13 ± 0.045
GCCGCAGCTA	3.05 ± 0.15

Sequence	switch fluorescence ratio
GCCGCTATTT	1.43 ± 0.18
GCCGGACAGT	1 ± 0.017
GCCGGATTCG	1.02 ± 0.013
GCCGGATTGA	1.02 ± 0.041
GCCGGCAATT	1.01 ± 0.015
GCCGGGACTA	1.01 ± 0.024
GCCGGGATTG	0.976 ± 0.029
GCCGGGGGTT	1.2 ± 0.21
GCCGGGTACG	0.992 ± 0.029
GCCGGGTTGA	1.03 ± 0.048
GCCGGTTATC	1 ± 0.017
GCCGGTTTTG	1.01 ± 0.017
GCCGTCTTGA	1.01 ± 0.041
GCCGTGTAGA	1.05 ± 0.021
GCCTACAACA	1.02 ± 0.029
GCCTACATTA	0.997 ± 0.022
GCCTCATAGG	0.994 ± 0.019
GCCTCGGGGG	0.953 ± 0.021
GCCTGAAAGG	0.993 ± 0.022
GCCTGAGCTG	1.024 ± 0.0094
GCCTGGGGGC	0.967 ± 0.019
GCCTGGTGTC	1.27 ± 0.055
GCCTGTATTG	0.982 ± 0.027
GCCTGTGGGG	0.977 ± 0.019
GCCTTAGAGT	1.03 ± 0.051

Sequence	switch fluorescence ratio
GCCTTAGCCG	0.972 ± 0.019
GCCTTAGGTG	1.4 ± 0.12
GCCTTGAAGT	1 ± 0.013
GCCTTGATAG	0.981 ± 0.0086
GCCTTGGTGC	1.08 ± 0.018
GCCTTTCAAT	1.024 ± 0.0015
GCCTTTGGCT	0.996 ± 0.049
GCCTTTTGCA	1.01 ± 0.03
GCCTTTTTTA	0.996 ± 0.016
GCGAAAACAG	1 ± 0.088
GCGAAAAGGA	1.02 ± 0.011
GCGAACGGAG	0.998 ± 0.011
GCGAATATCT	1.02 ± 0.037
GCGACGGGAG	1.01 ± 0.013
GCGACTAGGT	1.03 ± 0.028
GCGAGACTGT	1.07 ± 0.04
GCGAGATGGG	0.9735 ± 0.0013
GCGAGCGTCC	1.025 ± 0.0023
GCGAGGGCAA	1.72 ± 0.052
GCGAGGGGGT	0.979 ± 0.054
GCGAGTTGGG	0.985 ± 0.022
GCGATAAATT	0.983 ± 0.045
GCGATAATTT	0.9975 ± 0.0076
GCGATACGCA	1.07 ± 0.041
GCGATCAGAC	1.15 ± 0.015
